Assay results published in patent publication US20180362604A1 (SHIRE HUMAN GENETIC THERAPIES, published 2018).
Values belong to the binder of their own block, whether it stands above or below them.

How the values were obtained:
[1] = biological target: T1, Myostatin (UniProt O14793 267-375); experiment: surface plasmon resonance
T1 construct: bought protein; also called GDF-8; MST
T1 sequence (looked up): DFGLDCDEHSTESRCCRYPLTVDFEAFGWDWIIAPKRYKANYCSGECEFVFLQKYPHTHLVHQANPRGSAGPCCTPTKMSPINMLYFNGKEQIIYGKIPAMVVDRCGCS

[2] = biological target: T2, Activin A (UniProt P08476 311-426); experiment: surface plasmon resonance
T2 construct: bought protein
T2 sequence (looked up): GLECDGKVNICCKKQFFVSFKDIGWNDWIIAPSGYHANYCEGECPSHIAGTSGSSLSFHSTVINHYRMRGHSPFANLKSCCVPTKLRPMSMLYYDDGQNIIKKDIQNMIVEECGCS

[3] = biological target: T1, Myostatin; experiment: SPR (BIAcore), myostatin as analyte
[4] = biological target: T1, Myostatin; experiment: cell-based or functional assay
[5] = biological target: T2, Activin A; experiment: cell-based or functional assay

- Kd [1]: 7.5 pM
- Kd [2]: 6.1 pM
- Kd [3]: 0.0148 nM
- Myostatin IC50, cell-based assay for SMAD pathway (A204 luciferase reporter) [4]: 0.7 nM
- Activin A IC50, cell-based assay for SMAD pathway (A204 luciferase reporter) [5]: 0.8 nM
B1: FS315K(76,81,82)E-mFc (Fc fusion)
chain: GNCWLRQAKNGRCQVLYKTELSKEECCSTGRLSTSWTEEDVNDNTLFKWMIFNGGAPNCIPCKETCENVDCGPGKECRMNEENKPRCVCAPDCSNITWKGPVCGLDGKTYRNECALLKARCKEQPELEVQYQGRCKKTCRDVFCPGSSTCVVDQTNNAYCVTCNRICPEPASSEQYLCGNDGVTYSSACHLRKATCLLGRSIGLAYEGKCIKAKSCEDIQCTGGKKCLWDFKVGRGRCSLCDELCPDSKSDEPVCASDNATYASECAMKEAACSSGVLLEVKHSGSCNSISEDTEEEEEDEDQDYSFPISSILEW
notes: K76, K81, K82 to glutamic acid, fused with murine Fc; also called FS-EEE-mFc; not shown: murine Fc (mFc)

- Myostatin IC50, cell-based assay for SMAD pathway (A204 luciferase reporter) [4]: 0.5 nM
- Activin A IC50, cell-based assay for SMAD pathway (A204 luciferase reporter) [5]: 0.5 nM
B2: ActRIIB-Fc (Fc fusion, UniProt Q13705 19-134, looked up, not shown: a dimerising Fc or GST)
chain: SGRGEAETRECIYYNANWELERTNQSGLERCEGEQDKRLHCYASWRNSSGTIELVKKGCWLDDFNCYDRQECVATEENPQVYFCCCEGNFCNERFTHLPEAGGPEVTYEPPPTAPT
